Source: patent publication US20180291096A1 (Janssen / Centocor, published 2018)

T1: recombinant human IL-23 (hrIL-23), produced at Centocor (human, UniProt P29460 23-328)
T1 sequence 1: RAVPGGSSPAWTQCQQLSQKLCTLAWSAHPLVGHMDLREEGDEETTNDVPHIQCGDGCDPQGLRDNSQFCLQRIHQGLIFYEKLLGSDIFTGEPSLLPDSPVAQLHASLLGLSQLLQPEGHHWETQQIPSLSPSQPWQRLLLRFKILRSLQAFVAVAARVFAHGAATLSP
T1 sequence 2: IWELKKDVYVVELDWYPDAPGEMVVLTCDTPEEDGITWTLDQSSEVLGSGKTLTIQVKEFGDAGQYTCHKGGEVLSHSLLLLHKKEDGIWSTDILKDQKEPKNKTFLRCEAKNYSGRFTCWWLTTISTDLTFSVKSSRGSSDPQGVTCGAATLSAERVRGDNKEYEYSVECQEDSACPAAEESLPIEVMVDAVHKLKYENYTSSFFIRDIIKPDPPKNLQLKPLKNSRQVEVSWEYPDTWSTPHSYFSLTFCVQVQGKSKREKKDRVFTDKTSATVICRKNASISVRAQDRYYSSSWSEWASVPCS

B1: MOR04649 mAb (antibody, human IgG1, V domains shown)
VH: QVELVQSGAEVKKPGESLKISCKGSGYSFSNYWIGWVRQMPGKGLEWMGIIDPSNSYTNYSPSFQGQVTISADKSISTAYLQWSSLKASDTAMYYCARWYYKPFDVWGQGTLVTVSS
VL: DIVLTQPPSVSGAPGQRVTISCTGSSSNIGSGYDVHWYQQLPGTAPKLLIYGNSKRPSGVPDRFSGSKSGTSASLAITGLQSEDEADYYCSSWTPSSVVFGGGTKLTVL
B2: MOR05043 mAb (antibody, human IgG1, V domains shown)
VH: QVELVQSGAEVKKPGESLKISCKGSGYSFSNYWIGWVRQMPGKGLEWMGFISPDGSHTWYSPSFQGQVTISADKSISTAYLQWSSLKASDTAMYYCARWYYKPFDVWGQGTLVTVSS
VL: DIVLTQPPSVSGAPGQRVTISCTGSSSNIGSGYDVHWYQQLPGTAPKLLIYGNSKRPSGVPDRFSGSKSGTSASLAITGLQSEDEADYYCSSWTPSSVVFGGGTKLTVL
B3: MOR05059 mAb (antibody, human IgG1, V domains shown)
VH: QVELVQSGAEVKKPGESLKISCKGSGYSFSNYWIGWVRQMPGKGLEWMGIIDPSNSYTNYSPSFQGQVTISADKSISTAYLQWSSLKASDTAMYYCARWYYKPFDVWGQGTLVTVSS
VL: DIVLTQPPSVSGAPGQRVTISCTGSSSNIGSGYDVHWYQQLPGTAPKLLIYGNSKRPSGVPDRFSGSKSGTSASLAITGLQSEDEADYYCASWTDGLSLVVFGGGTKLTVL
B4: MOR05044 mAb (antibody, human IgG1, V domains shown)
VH: QVELVQSGAEVKKPGESLKISCKGSGYSFSNYWIGWVRQMPGKGLEWMGIISPSGSTTWYSPSFQGQVTISADKSISTAYLQWSSLKASDTAMYYCARWYYKPFDVWGQGTLVTVSS
VL: DIVLTQPPSVSGAPGQRVTISCTGSSSNIGSGYDVHWYQQLPGTAPKLLIYGNSKRPSGVPDRFSGSKSGTSASLAITGLQSEDEADYYCSSWTPSSVVFGGGTKLTVL
B5: MOR05046 mAb (antibody, human IgG1, V domains shown)
VH: QVELVQSGAEVKKPGESLKISCKGSGYSFSNYWIGWVRQMPGKGLEWMGIIDPVSSWTKYSPSFQGQVTISADKSISTAYLQWSSLKASDTAMYYCARWYYKPFDVWGQGTLVTVSS
VL: DIVLTQPPSVSGAPGQRVTISCTGSSSNIGSGYDVHWYQQLPGTAPKLLIYGNSKRPSGVPDRFSGSKSGTSASLAITGLQSEDEADYYCSSWTPSSVVFGGGTKLTVL
B6: MOR05041 mAb (antibody, human IgG1, V domains shown)
VH: QVELVQSGAEVKKPGESLKISCKGSGYSFSNYWIGWVRQMPGKGLEWMGIISPTGSVTWYSPSFQGQVTISADKSISTAYLQWSSLKASDTAMYYCARWYYKPFDVWGQGTLVTVSS
VL: DIVLTQPPSVSGAPGQRVTISCTGSSSNIGSGYDVHWYQQLPGTAPKLLIYGNSKRPSGVPDRFSGSKSGTSASLAITGLQSEDEADYYCSSWTPSSVVFGGGTKLTVL
B7: MOR05058 mAb (antibody, human IgG1, V domains shown)
VH: QVELVQSGAEVKKPGESLKISCKGSGYSFSNYWIGWVRQMPGKGLEWMGIIDPSNSYTNYSPSFQGQVTISADKSISTAYLQWSSLKASDTAMYYCARWYYKPFDVWGQGTLVTVSS
VL: DIVLTQPPSVSGAPGQRVTISCTGSSSNIGSGYDVHWYQQLPGTAPKLLIYGNSKRPSGVPDRFSGSKSGTSASLAITGLQSEDEADYYCSSWTDTPNMIVFGGGTKLTVL
B8: MOR05042 mAb (antibody, human IgG1, V domains shown)
VH: QVELVQSGAEVKKPGESLKISCKGSGYSFSNYWIGWVRQMPGKGLEWMGIISPTGSSTWYSPSFQGQVTISADKSISTAYLQWSSLKASDTAMYYCARWYYKPFDVWGQGTLVTVSS
VL: DIVLTQPPSVSGAPGQRVTISCTGSSSNIGSGYDVHWYQQLPGTAPKLLIYGNSKRPSGVPDRFSGSKSGTSASLAITGLQSEDEADYYCSSWTPSSVVFGGGTKLTVL
B9: MOR05045 mAb (antibody, human IgG1, V domains shown)
VH: QVELVQSGAEVKKPGESLKISCKGSGYSFSNYWIGWVRQMPGKGLEWMGIISPTGSATWYSPSFQGQVTISADKSISTAYLQWSSLKASDTAMYYCARWYYKPFDVWGQGTLVTVSS
VL: DIVLTQPPSVSGAPGQRVTISCTGSSSNIGSGYDVHWYQQLPGTAPKLLIYGNSKRPSGVPDRFSGSKSGTSASLAITGLQSEDEADYYCSSWTPSSVVFGGGTKLTVL
B10: MOR05040 mAb (antibody, human IgG1, V domains shown)
VH: QVELVQSGAEVKKPGSSVKVSCKASGGTFSSNYISWVRQAPGQGLEWMGISPGTGINAYYAQKFQGRVTITADESTSTAYMELSSLRSEDTAVYYCARSKKGMYGGWTYPLMMFDLWGQGTLVTVSS
VL: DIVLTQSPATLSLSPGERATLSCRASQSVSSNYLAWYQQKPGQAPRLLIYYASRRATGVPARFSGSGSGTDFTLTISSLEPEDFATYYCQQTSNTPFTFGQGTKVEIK
B11: MOR05030 mAb (antibody, human IgG1, V domains shown)
VH: QVELVQSGAEVKKPGSSVKVSCKASGGTFSSNYISWVRQAPGQGLEWMGGIIPIFGHANYAQKFQGRVTITADESTSTAYMELSSLRSEDTAVYYCARSKKGMYGGWTYPLMMFDLWGQGTLVTVSS
VL: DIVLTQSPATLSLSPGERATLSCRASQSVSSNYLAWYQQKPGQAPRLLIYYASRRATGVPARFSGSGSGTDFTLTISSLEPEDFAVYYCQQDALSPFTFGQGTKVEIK
B12: MOR05029 mAb (antibody, human IgG1, V domains shown)
VH: QVELVQSGAEVKKPGSSVKVSCKASGGTFSSNYISWVRQAPGQGLEWMGGIIPIFGHANYAQKFQGRVTITADESTSTAYMELSSLRSEDTAVYYCARSKKGMYGGWTYPLMMFDLWGQGTLVTVSS
VL: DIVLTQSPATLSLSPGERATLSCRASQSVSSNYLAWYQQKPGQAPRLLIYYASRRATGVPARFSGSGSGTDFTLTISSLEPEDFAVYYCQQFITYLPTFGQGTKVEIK
B13: MOR05038 mAb (antibody, human IgG1, V domains shown)
VH: QVELVQSGAEVKKPGSSVKVSCKASGGTFSSNYISWVRQAPGQGLEWMGINAHLGGTWYAQKFQGRVTITADESTSTAYMELSSLRSEDTAVYYCARSKKGMYGGWTYPLMMFDLWGQGTLVTVSS
VL: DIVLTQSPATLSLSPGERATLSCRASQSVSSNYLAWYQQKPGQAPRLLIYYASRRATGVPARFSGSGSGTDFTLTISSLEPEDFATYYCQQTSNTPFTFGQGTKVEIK
B14: MOR05054 mAb (antibody, human IgG1, V domains shown)
VH: QVELVESGGGLVQPGGSLRLSCAASGFTFSSFGMSWVRQAPGKGLEWVSGIEHKYLSYATLYAASVKGRFTISRDNSKNTLYLQMNSLRAEDTAVYYCARYWGTPYLMQFDNWGQGTLVTVSS
VL: DIALTQPASVSGSPGQSITISCTGTSSDVGGYNSVSWYQQHPGKAPKLMIYSVSSRPSGVSNRFSGSKSGNTASLTISGLQAEDEADYYCSSYDTNKPLVVFGGGTKLTVL
B15: MOR05052 mAb (antibody, human IgG1, V domains shown)
VH: QVELVESGGGLVQPGGSLRLSCAASGFTFSSFGMSWVRQAPGKGLEWVSSIEHKYLSYTTFYAASVKGRFTISRDNSKNTLYLQMNSLRAEDTAVYYCARYWGTPYLMQFDNWGQGTLVTVSS
VL: DIALTQPASVSGSPGQSITISCTGTSSDVGGYNSVSWYQQHPGKAPKLMIYSVSSRPSGVSNRFSGSKSGNTASLTISGLQAEDEADYYCSSYDTNKPLVVFGGGTKLTVL
B16: MOR05047 mAb (antibody, human IgG1, V domains shown)
VH: QVELVESGGGLVQPGGSLRLSCAASGFTFSSFGMSWVRQAPGKGLEWVSNIEHKYLGYATSYAASVKGRFTISRDNSKNTLYLQMNSLRAEDTAVYYCARYWGTPYLMQFDNWGQGTLVTVSS
VL: DIALTQPASVSGSPGQSITISCTGTSSDVGGYNSVSWYQQHPGKAPKLMIYSVSSRPSGVSNRFSGSKSGNTASLTISGLQAEDEADYYCSSYDTNKPLVVFGGGTKLTVL
B17: MOR05048 mAb (antibody, human IgG1, V domains shown)
VH: QVELVESGGGLVQPGGSLRLSCAASGFTFSSFGMSWVRQAPGKGLEWVSNIEHKFMGYTTYYAAGVKGRFTISRDNSKNTLYLQMNSLRAEDTAVYYCARYWGTPYLMQFDNWGQGTLVTVSS
VL: DIALTQPASVSGSPGQSITISCTGTSSDVGGYNSVSWYQQHPGKAPKLMIYSVSSRPSGVSNRFSGSKSGNTASLTISGLQAEDEADYYCSSYDTNKPLVVFGGGTKLTVL
B18: MOR05051 mAb (antibody, human IgG1, V domains shown)
VH: QVELVESGGGLVQPGGSLRLSCAASGFTFSSFGMSWVRQAPGKGLEWVSQIEHKYLSYTTLYAASVKGRFTISRDNSKNTLYLQMNSLRAEDTAVYYCARYWGTPYLMQFDNWGQGTLVTVSS
VL: DIALTQPASVSGSPGQSITISCTGTSSDVGGYNSVSWYQQHPGKAPKLMIYSVSSRPSGVSNRFSGSKSGNTASLTISGLQAEDEADYYCSSYDTNKPLVVFGGGTKLTVL
B19: MOR05050 mAb (antibody, human IgG1, V domains shown)
VH: QVELVESGGGLVQPGGSLRLSCAASGFTFSSFGMSWVRQAPGKGLEWVSSIEHKYTGYTTYYAAPVKGRFTISRDNSKNTLYLQMNSLRAEDTAVYYCARYWGTPYLMQFDNWGQGTLVTVSS
VL: DIALTQPASVSGSPGQSITISCTGTSSDVGGYNSVSWYQQHPGKAPKLMIYSVSSRPSGVSNRFSGSKSGNTASLTISGLQAEDEADYYCSSYDTNKPLVVFGGGTKLTVL
B20: MOR05053 mAb (antibody, human IgG1, V domains shown)
VH: QVELVESGGGLVQPGGSLRLSCAASGFTFSSFGMSWVRQAPGKGLEWVSNIEHKYTSYTTYYAASVKGRFTISRDNSKNTLYLQMNSLRAEDTAVYYCARYWGTPYLMQFDNWGQGTLVTVSS
VL: DIALTQPASVSGSPGQSITISCTGTSSDVGGYNSVSWYQQHPGKAPKLMIYSVSSRPSGVSNRFSGSKSGNTASLTISGLQAEDEADYYCSSYDTNKPLVVFGGGTKLTVL

Target: T1, recombinant human IL-23 (hrIL-23), …
Test: cell-based or functional assay

With B1 as the binder, how does the “IC50, inhibition of IL-17 production” value read?
The value was 0.276 µg/mL.

With B2 as the binder, how does the “IC50, inhibition of IL-17 production” value read?
The value was 0.0144 µg/mL.

How did the “IC50, inhibition of IL-17 production” value turn out when B3 was run?
Its value is 0.0106 µg/mL.

Which “IC50, inhibition of IL-17 production” value does the source give for B4 here?
The value was 0.0141 µg/mL.

Which “IC50, inhibition of IL-17 production” value does the source give for B5 here?
The value was 0.0428 µg/mL.

How did the “IC50, inhibition of IL-17 production” value turn out when B6 was run?
Its value is 0.00301 µg/mL.

Which “IC50, inhibition of IL-17 production” value does the source give for B7 here?
The value was 0.00285 µg/mL.

Which “IC50, inhibition of IL-17 production” value does the source give for B8 here?
Its value is 0.00127 µg/mL.

B9 was tested. Which “IC50, inhibition of IL-17 production” value did it give?
Its value is 0.0014 µg/mL.

Which “IC50, inhibition of IL-17 production” value does the source give for B10 here?
Its value is 0.00264 µg/mL.

For B11, which “IC50, inhibition of IL-17 production” value is on record?
The value was 0.0646 µg/mL.

Which “IC50, inhibition of IL-17 production” value does the source give for B12 here?
Its value is 0.0491 µg/mL.

Which “IC50, inhibition of IL-17 production” value does the source give for B13 here?
The value was 0.0282 µg/mL.

With B14 as the binder, how does the “IC50, inhibition of IL-17 production” value read?
The value was 0.00323 µg/mL.

For B15, which “IC50, inhibition of IL-17 production” value is on record?
The value was 0.0178 µg/mL.

With B16 as the binder, how does the “IC50, inhibition of IL-17 production” value read?
The value was 0.0234 µg/mL.

For B17, which “IC50, inhibition of IL-17 production” value is on record?
Its value is 0.0162 µg/mL.

B18 was tested. Which “IC50, inhibition of IL-17 production” value did it give?
Its value is 0.0663 µg/mL.

How did the “IC50, inhibition of IL-17 production” value turn out when B19 was run?
The value was 0.0277 µg/mL.

B20 was tested. Which “IC50, inhibition of IL-17 production” value did it give?
Its value is 0.00493 µg/mL.
